# T1: human B7H3-2Ig on BaF3 cells (BaF3/B7H3-2Ig) (human, UniProt Q5ZPR3 29-534)
# T1 chain: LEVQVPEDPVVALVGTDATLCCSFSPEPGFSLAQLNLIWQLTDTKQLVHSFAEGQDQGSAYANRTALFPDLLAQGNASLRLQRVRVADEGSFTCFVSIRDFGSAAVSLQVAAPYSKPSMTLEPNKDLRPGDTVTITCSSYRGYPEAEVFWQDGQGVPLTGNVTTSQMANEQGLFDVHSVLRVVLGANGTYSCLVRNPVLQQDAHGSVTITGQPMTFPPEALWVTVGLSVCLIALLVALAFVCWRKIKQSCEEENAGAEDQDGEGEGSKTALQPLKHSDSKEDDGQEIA
# T2: human B7H3-4Ig on BaF3 cells (BaF3/B7H3-4Ig) (human, UniProt Q5ZPR3 29-534)
# T2 sequence: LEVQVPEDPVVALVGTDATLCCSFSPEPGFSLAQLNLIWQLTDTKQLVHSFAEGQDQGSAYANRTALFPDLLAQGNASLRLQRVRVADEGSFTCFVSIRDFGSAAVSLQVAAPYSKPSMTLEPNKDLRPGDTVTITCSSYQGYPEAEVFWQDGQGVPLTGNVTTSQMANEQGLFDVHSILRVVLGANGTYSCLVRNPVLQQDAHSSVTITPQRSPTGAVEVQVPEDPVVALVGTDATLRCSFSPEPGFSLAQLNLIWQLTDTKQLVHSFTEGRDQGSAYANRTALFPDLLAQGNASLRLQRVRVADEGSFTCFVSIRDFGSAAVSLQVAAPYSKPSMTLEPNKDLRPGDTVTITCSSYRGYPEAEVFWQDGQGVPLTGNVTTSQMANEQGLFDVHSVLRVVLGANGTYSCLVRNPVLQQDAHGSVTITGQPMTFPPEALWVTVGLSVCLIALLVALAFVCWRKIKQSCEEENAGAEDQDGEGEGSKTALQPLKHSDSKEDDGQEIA
# T3: Cynomolgus B7H3 (plate-coated protein, ELISA) (cynomolgus monkey)
# T3 chain: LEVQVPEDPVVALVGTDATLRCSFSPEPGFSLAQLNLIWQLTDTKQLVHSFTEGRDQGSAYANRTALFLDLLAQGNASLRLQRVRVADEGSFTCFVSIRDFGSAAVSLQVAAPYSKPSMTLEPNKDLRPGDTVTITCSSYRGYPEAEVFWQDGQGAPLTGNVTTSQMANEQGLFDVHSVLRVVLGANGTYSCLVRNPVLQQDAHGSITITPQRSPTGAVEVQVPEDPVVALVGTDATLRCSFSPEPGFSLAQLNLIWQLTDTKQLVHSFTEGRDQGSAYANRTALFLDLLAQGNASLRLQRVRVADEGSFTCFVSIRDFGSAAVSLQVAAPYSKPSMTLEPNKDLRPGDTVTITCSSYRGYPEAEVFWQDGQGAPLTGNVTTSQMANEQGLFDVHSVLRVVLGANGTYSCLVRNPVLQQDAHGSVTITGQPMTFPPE
# T4: Mouse B7H3 (plate-coated protein, ELISA) (mouse, UniProt Q8VE98 29-248, limits assumed)
# T4 sequence (looked up): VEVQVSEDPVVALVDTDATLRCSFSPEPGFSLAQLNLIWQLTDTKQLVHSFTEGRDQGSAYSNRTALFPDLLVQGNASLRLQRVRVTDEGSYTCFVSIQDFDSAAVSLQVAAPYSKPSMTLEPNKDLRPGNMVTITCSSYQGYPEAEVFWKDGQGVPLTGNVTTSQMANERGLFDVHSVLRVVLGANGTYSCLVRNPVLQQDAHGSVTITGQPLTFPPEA
# T5: Human B7-H3 extracellular domain (NCBI Reference Sequence: NM_025240.2) (human, UniProt Q5ZPR3 29-466)
# T5 chain: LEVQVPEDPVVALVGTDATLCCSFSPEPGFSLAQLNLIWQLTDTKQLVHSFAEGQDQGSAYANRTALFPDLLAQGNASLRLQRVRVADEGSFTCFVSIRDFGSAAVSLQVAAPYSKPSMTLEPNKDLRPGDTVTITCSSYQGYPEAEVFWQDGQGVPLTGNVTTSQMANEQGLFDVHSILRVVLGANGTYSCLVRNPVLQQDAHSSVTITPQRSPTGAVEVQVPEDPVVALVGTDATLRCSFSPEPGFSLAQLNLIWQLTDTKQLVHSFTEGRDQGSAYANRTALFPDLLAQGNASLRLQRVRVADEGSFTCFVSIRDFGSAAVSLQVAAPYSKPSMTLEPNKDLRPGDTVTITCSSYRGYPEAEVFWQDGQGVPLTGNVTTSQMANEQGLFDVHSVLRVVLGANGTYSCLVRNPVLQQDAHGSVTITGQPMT
# What was measured:
# [1] = molecular target: T1, human B7H3-2Ig on BaF3 cells …; experiment: flow cytometry on BaF3/B7H3-2Ig cells
# [2] = molecular target: T2, human B7H3-4Ig on BaF3 cells …; experiment: flow cytometry on BaF3/B7H3-4Ig cells
# Protocol: (§1) Cell surface binding affinity was tested with BaF3/B7H3-2Ig and BaF3/B7H3-4Ig the same method separately. Cells were washed with PBS and aliquot to 96-well U-bottom plate with a cell density of 5×10\hat{ }5 cells/well. For live/dead stain, LIVE/DEAD® Fixable Aqua Dead Cell Stain Kit (Life technologies, L34957) was applied (1:1000 in PBS, 100 ul/well) to cells, and incubated at 4° C. for 10 min FACS buffer (2% FBS in PBS, 100 ul/well) was added to each well to terminate staining. Centrifuge (1200 rpm, 5 min) to discard supernatant and wash with FACS buffer once. Humanized anti-B7H3 antibodies were diluted in FACS buffer to according concentrations and added to each well (100 ul/well). Cells were incubated at 4° C. for 30 min, and then, washed twice with FACS buffer. Alexa Fluor® 594 labeled goat anti-human IgG (Jackson Immuno Research, 109-585-088) was added (1:500 in FACS buffer) to label bounded antibodies. Cells were incubated at 4° C. for 30 min, and then, washed twice with FACS buffer.
# [3] = molecular target: B7H3 expressed on LPS-stimulated human PBMCs (monocytes) (human) (UniProt Q5ZPR3); experiment: flow cytometry on LPS-stimulated human PBMCs
# [4] = molecular target: Human B7H3 (plate-coated protein, ELISA) (human) (UniProt Q5ZPR3); experiment: ELISA, antigen coated on plate, anti-human IgG-HRP
# [5] = molecular target: T3, Cynomolgus B7H3 (plate-coated protein, …); experiment: ELISA, antigen coated on plate, anti-human IgG-HRP
# Protocol: (§2) In order to test humanized anti-B7H3 antibody binding affinity, an ELISA analysis was carried out. Human B7H3, mouse B7H3, and cynomolgus B7H3 (2 ug/ml, in PBS) were coated on MaxiSorp 96-well plates (NUNC, 449824) in 0.5M carbonate/bicarbonate buffer, pH9.6, incubated at 4° C. overnight. Coated plates were blocked with skimmed milk (5%, in PBST) for 1 h. Humanized anti-B7H3 antibodies were diluted and added to the plates, and incubated for 2 h at room temperature. Washed three times with PBST (1×PBS with 0.05% tween-20) to eliminate un-bounded antibodies. Goat anti-Human IgG-HRP (Easybio, BE0122, 1:5000 in PBS) was added and incubated for 1 h. Washed three times with PBST (lx PBS with 0.05% tween-20) to eliminate un-bounded antibodies. TMB (eBioscience, 00-4201-56) was added (50 ul/well) for color rendering and stopped by 2N H2SO4 (50 ul/well). Optical density was measured at 450 nm and […]. As shown in FIG. 1A and Table 1, the antibodies bind to human, mouse and cynomolgus monkey B7H3 protein with high affinity. The binding ability of the mAbs to cynomolgus B7H3 is similar to that for human B7-H3 protein.
# [6] = molecular target: T4, Mouse B7H3 (plate-coated protein, ELISA); experiment: ELISA, antigen coated on plate, anti-human IgG-HRP
# Protocol: as §2
# [7] = molecular target: T5, Human B7-H3 extracellular domain (NCBI …); experiment: SPR, Biacore 8K, antibody captured through Fc, B7-H3 ECD as analyte
# [8] = molecular target: B7H3 expressed on LPS-stimulated human PBMCs (monocytes) (human) (UniProt Q5ZPR3); experiment: flow cytometry (MFI) on LPS-stimulated human PBMCs; panel 'XKH007-2721'
# [9] = molecular target: T1, human B7H3-2Ig on BaF3 cells …; experiment: flow cytometry (MFI) on BaF3 cells stably expressing human B7H3-2Ig; panel 'BaF3/2Ig-B7H3'
# [10] = molecular target: T2, human B7H3-4Ig on BaF3 cells …; experiment: flow cytometry (MFI) on BaF3 cells stably expressing human B7H3-4Ig; panel 'BaF3/4Ig-B7H3'
# Protocol: as §1
# [11] = molecular target: B7H3 expressed on LPS-stimulated human PBMCs (monocytes) (human) (UniProt Q5ZPR3); experiment: flow cytometry (MFI) on LPS-stimulated human PBMCs; panel 'XKH007 23-5423'
# [12] = molecular target: T2, human B7H3-4Ig on BaF3 cells …; experiment: flow cytometry (MFI) on BaF3 cells stably expressing human B7H3-4Ig; panel 'BaF3-B7H3-4Ig'
# Protocol: as §1
# [13] = molecular target: B7H3 expressed on LPS-stimulated human PBMCs (monocytes) (human) (UniProt Q5ZPR3); experiment: flow cytometry (MFI) on LPS-stimulated human PBMCs; panel 'XKH007-272121'
# [14] = molecular target: B7H3 expressed on LPS-stimulated human PBMCs (monocytes) (human) (UniProt Q5ZPR3); experiment: flow cytometry (MFI) on LPS-stimulated human PBMCs; panel 'XKH007 23-5424'
# [15] = molecular target: B7H3 expressed on LPS-stimulated human PBMCs (monocytes) (human) (UniProt Q5ZPR3); experiment: flow cytometry (MFI) on LPS-stimulated human PBMCs; panel 'XKH007-2722'
Binder,EC50 [1] [pM],EC50 [2] [pM],EC50 [3] [pM],EC50 [4] [pM],EC50 [5] [pM],EC50 [6] [pM],Kd [7] [pM],koff [7] [s⁻¹],kon [7] [M⁻¹ s⁻¹],EC50 (read off the curve) [8] [pM],EC50 [9] [pM],EC50 [10] [pM],EC50 [11] [pM],binding result [12],EC50 [13] [pM],EC50 [14] [pM],EC50 [15] [pM]
"#27-21 (VH2-2-VL2-1) (antibody, V domains shown, Humanized antibody from murine #27; Detected with anti-human IgG and captured through Fc; also called #27-VH2-2/VL2-1) VH: QVQLVQSGAEVVKPGASVKVSCKASGYTFTNYWMHWVKQAPGQGLEWIGMIHPNSGAFNYNERFKTRVTITVDKSTSTAYMELSSLRSEDTAVYYCARSTALATGYWGQGTLLTVSS VL: DIQLTQSPSFLSASVGDRVTITCSASSSVSYMYWYQQKPGKSPKLLIYDTSNLASGVPSRFSGSGSGTEYTLTISSLQPEDFATYYCQQWSSYPLTFGQGTKLEIK",< 1000,< 1000,< 1000,618,685,586,1440,0.000431,299000,60,897,896,,,,,
"#23-5423 (VH5-4-VL2-3) (antibody, IgG1, V domains shown, Humanized antibody from murine #23) VH: QVQLVQSGAEVKKPGESLKISCKASGYNFNNYWMHWVRQRPGKGLEWIGMIHPNSGTFNYNERFKRKATLTVDKSISTAYLQWSSLKAEDTAMYYCAKSTALATDYWGQGTLVTVSS VL: QIVLTQSPSTLSASVGDRVTITCSASSSVSYMYWYQQKPGKAPKLLIYDTSNLASGVPIRFSGSGSGTSYTLTISSLQPDDFATYYCQQWSSYPLTFGQGTKLEIK",,,< 3000,68.5,42,1440,1050,0.000345,329000,,,,1540,binds,,,
"#27-2121 (VH2-1-VL2-1) (antibody, IgG1, V domains shown, Humanized antibody from murine #27; also called #27-VH2-1/VL2-1) VH: QVQLVQSGAEVVKPGASVKVSCKASGYTFTNYWMHWVRQAPGQGLEWMGMIHPNSGAFNYNERFKTRVTITVDKSTSTAYMELSSLRSEDTAVYYCARSTALATGYWGQGTLVTVSS VL: DIQLTQSPSFLSASVGDRVTITCSASSSVSYMYWYQQKPGKSPKLLIYDTSNLASGVPSRFSGSGSGTEYTLTISSLQPEDFATYYCQQWSSYPLTFGQGTKLEIK",< 1000,< 1000,< 1000,583,494,462,1420,0.000433,306000,,777,908,,,116,,
"#23-5424 (VH5-4-VL2-4) (antibody, IgG1, V domains shown, Humanized antibody from murine #23; also called #23-VH5-4/VL2-4) VH: QVQLVQSGAEVKKPGESLKISCKASGYNFNNYWMHWVRQRPGKGLEWIGMIHPNSGTFNYNERFKRKATLTVDKSISTAYLQWSSLKAEDTAMYYCAKSTALATDYWGQGTLVTVSS VL: QIVLTQSPSTLSASVGDRVTMTCSASSSVSYMYWYQQKPGKAPKLLIYDTSNLASGVPIRFSGSGSGTSYTLTISSMQPDDFVTYYCQQWSSYPLTFGQGTKLEIK",,,< 3000,125,65.2,4900,1360,0.000356,263000,,,,,binds,,1980,
"#27-22 (VH2-2-VL2-2) (antibody, IgG1, V domains shown, Humanized antibody from murine #27; also called #27-VH2-2/VL2-2) VH: QVQLVQSGAEVVKPGASVKVSCKASGYTFTNYWMHWVKQAPGQGLEWIGMIHPNSGAFNYNERFKTRVTITVDKSTSTAYMELSSLRSEDTAVYYCARSTALATGYWGQGTLLTVSS VL: DIQLTQSPSFLSASVGDRVTMTCSASSSVSYMYWYQQKPGKSPKLLIYDTSNLASGVPSRFSGSGSGTEYTLTISSLQPEDFVTYYCQQWSSYPLTFGQGTKLEIK",< 1000,< 1000,< 1000,333,584,340,1260,0.000365,288000,,1160,984,,,,,131

# From US20220119529A1 (SUZHOU KANOVA BIOPHARMACEUTICAL, published 2022)
